According to patent publication US20150087807A1:

B1: humanized single chain variable fragment of 1E4 (huscFv1E4) (scFv)
scFv: QCLVESGGGVVQPGRSLRLSCAASGFTFSNYRVHWVRQAPGKGLEWIAVIAVKSDNYGANYAESVKGRFTISRDNSKNTLYLQMNSLRAEDTAVYYCRSTVVVMGDYFAMDYWGQGTSVTVSSGGGGSGGGGSGGGGSDIVLTQSPAFLSVTPGEKVTITCRASQNIGTYIHWYQQKPDQAPKLLIKYASESVSGVPSRFSGSGSGTDFTFTISSLEAEDAATYYCQQSNTWPYTFGGGTKLEIKRADAAPTVSKLAAALEHHHHHH
B2: recombinant murine single chain variable fragment of 1E4 (muscFv1E4) (scFv)
scFv: ECLEESGGGLVRPGNSLKLSCVTSGFTFSNYRVHWLRQPPGKRLEWIAVIAVKSDNYGANYAESVKGRFTISRDDSKSSVYLQMNRLREEDTATYYCRSTVVVMGDYFAMDYWGQGTSVTVSSGGGGSGGGGSGGGGSDIELTQSPAILSVSPGERVSFSCRASQNIGTYIHWYQQRTNGSPRLLIKYASESVSGIPSRFSGRGSGTDFTLSISSVESEDIADYYCQQSNTWPYTFGGGTKLEIKRADAAPTVSKLAAALEHHHHHH

Biological target: synthetic mimetic peptide m1E41920
Assay: indirect ELISA, m1E41920 peptide coated, nonlinear regression (GraphPad Prism)

| Binder | EC50 [nM] |
| --- | --- |
| B1 | 62.3 |
| B2 | 73.1 |
